We go through 16 sequences from the nanobody polyreactivity screen of Harvey et al. (2022).

The series in a line: yeast display, Sf9 membrane polyspecificity reagent, FACS + sequencing; frameworks hold sequencing errors. The gist of the method:
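A synthetic nanobody library was expressed on Saccharomyces cerevisiae BJ5465 by galactose induction for 36–48 hours. The library was stained for 1 hour at 4 °C with 10% biotinylated, detergent-solubilized Sf9 membrane reagent and enriched with streptavidin microbeads before FACS. Low and high (top ~1%) gates were set on anti-HA fluorescence for expression and streptavidin fluorescence for reagent binding, and each polyreactivity label reflects the gate of origin.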
“QVQLVESGGGLVQAGGSLRLSCAASGSIFEEYAMGWYRQAPGKERELVARIDESGGSTYYADSVKGRFTISRDNAKNTVYLQMNSLKPEDTAVYYCAAERYSDSWGYYSVDEGSWEMDYWGQGTQVTVSS”: the “polyreactivity (PSR sort gate)” value is listed as “low polyreactivity”. Consider “QVQLVESGGGLVQAGGSLRLSCAASGSIFEGNGMGWYRQAPGKERELVASITRSGGSTYYADSVKGRFTISRDNAKNTVYLQMNSLKPEDTAVYYCAVSRDSYGGKGSVLYDYWGQGTQVTVSS”, for which the “polyreactivity (PSR sort gate)” value is given as “low polyreactivity”.

In the case of “QVQLVESGGGLVQAGGSLRLSCAASGSIFEGNGRGWYREAPGKDRELVAAITFRSGSTYYADSVKGRFTISRDNAKNTVYLQMNSLKPEDTAVYYCAADEYYQVSAYDYWGQGTQVTVSS”, the “polyreactivity (PSR sort gate)” value is reported as “low polyreactivity”. The result for “QVQLVESGGGLVQAGGSLRLSCAASGSIFEGSVMGWSRQAPGKEREWVATISFSGGSTYYADSVKGRFTISRDNAKNTLYLQMNSLKPEDTAVYYCNALVYHTKGDYGYWGQGTQVTVSS” reads “low polyreactivity”. As for “QVQLVESGGGLVQAGGSLRLSCAASGSIFEGYAMGWYRQAPGKERELVAAISRSGGSTYYADSVKGRFTISRDNAKNTVYLQMNSLKPEDTAVYYCAARKAIDYQGRHDHWGQGTQVTVSS”, the “polyreactivity (PSR sort gate)” value is “low polyreactivity”. For “QVQLVESGGGLVQAGGSLRLSCAASGSIFEGYSMGWYRQAPAKERELVARITSDDDSTYYADSVKGRFTISRDNAKNTVYLQMNSLKPEDSAVYYCNADYYWTSLAMDSWGQGTQVTVSS”, the “polyreactivity (PSR sort gate)” value is “low polyreactivity”. The result for “QVQLVESGGGLVQAGGSLRLSCAASGSIFEGYVMGCDIQAPGKERELVATISFSGGSTYYADSVKGRFTISRDNAKNTVYLQMNSLKPEDTAVYYCNALVYHTKGDYGYWGQGTQVTVSS” reads “low polyreactivity”; that for “QVQLVESGGGLVQAGGSLRLSCAASGSIFELNAMGWYRQAPGKERELVAAIRWRTGRTYYADSVKGRFTISRDNAKNTVYLQMNSLKPEDTAVYYCAAPVRSGVRYTLDYWGQGTQVTVSS”, “high polyreactivity”; that for “QVQLVESGGGLVQAGGSLRLSCAASGSIFELNAMGWYRQAPGKERELVAAITSSGSSTYYADSVKGRFTISRDNAKNTVYLQMNSLKPEDTAVYYCFRPHDYWGQGTQVTVSS”, “low polyreactivity”. The result for “QVQLVESGGGLVQAGGSLRLSCAASGSIFEPYTMGWYRQAPGKERELVAAITGSGCSKFYADSVKGRFTISRDNAKNTVYLQMNSLKPEDTGVYYCNAYAYPYTDVDYWGQGTQVTVSS” reads “low polyreactivity”; that for “QVQLVESGGGLVQAGGSLRLSCAASGSIFEPYVMGWYRQAPGKERELVAAIRQTGGSTYYADSVKGRFTISRDNAKNTVYLQMNSLKPEDTAVYYCNAEQNPSALYDYRGVEGEMGYWGQGTQVTVSS”, “low polyreactivity”. As for “QVQLVESGGGLVQAGGSLRLSCAASGSIFEQYAMGWYRQAPGKERELVAGINWSTGSTYYADSVKGRFTISRDNAKNTVYLQMNSLKPEDTAVYYCAAEVAGALSDYDYWGQGTQVNVSS”, the “polyreactivity (PSR sort gate)” value is “low polyreactivity”. Turning to “QVQLVESGGGLVQAGGSLRLSCAASGSIFEQYTMGWYRQAPGKERELVAAISYSGGRTYYADSVKGRFTISRDNAKNTVYLQMNSLKPEDTAVYYCATRGRDRRIYGYWGQGTQVTVSS”, the “polyreactivity (PSR sort gate)” value is given as “high polyreactivity”.

Regarding “QVQLVESGGGLVQAGGSLRLSCAASGSIFERYALGWYSQAPGKEREMVAAITWTGGRTYYADSVKGRFTISRDIAKNTVYLQMNSLKPEDTAVYYCARSYTRRGYDYWGLGTQVTVSS”, the “polyreactivity (PSR sort gate)” value is recorded as “high polyreactivity”. Regarding “QVQLVESGGGLVQAGGSLRLSCAASGSIFESNGMGCYRQAPGKERELVASISNGDITYFADSVKGRFTISRDNAKNTVYLQMNSLKPEDTAVYYCAATLYRNYVIFRYDYSGQGTQVTVSS”, the “polyreactivity (PSR sort gate)” value is listed as “low polyreactivity”. On to “QVQLVESGGGLVQAGGSLRLSCAASGSIFEVYAMGWYRQAPGKDRELVAAITSSDITYYADSVKGRFTISRDNAKNTVYLQMNSLKPEDRAVFYCNAEPPYRVKRSDYWGQGTQVTVSS”, for which the “polyreactivity (PSR sort gate)” value is listed as “low polyreactivity”.
